The test concerns the target T1, ORF57-6xHis (Kaposi's sarcoma-associated herpesvirus …, UniProt Q2HR75 1-455).
T1 sequence: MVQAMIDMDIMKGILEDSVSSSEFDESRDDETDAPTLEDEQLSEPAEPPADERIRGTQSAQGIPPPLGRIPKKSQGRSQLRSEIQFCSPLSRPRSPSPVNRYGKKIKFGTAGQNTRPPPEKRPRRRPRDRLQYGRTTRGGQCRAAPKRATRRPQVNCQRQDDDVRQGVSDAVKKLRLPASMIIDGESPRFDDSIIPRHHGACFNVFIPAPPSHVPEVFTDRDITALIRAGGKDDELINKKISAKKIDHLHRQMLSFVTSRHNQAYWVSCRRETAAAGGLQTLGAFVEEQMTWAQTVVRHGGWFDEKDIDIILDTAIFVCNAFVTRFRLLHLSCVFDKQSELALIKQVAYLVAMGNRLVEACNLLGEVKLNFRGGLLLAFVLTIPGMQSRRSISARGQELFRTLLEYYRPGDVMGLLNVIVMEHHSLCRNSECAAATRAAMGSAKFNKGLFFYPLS
Put plainly: pull-down.

B1: GST-PYM (natural protein)
chain: not shown
As for B1, the binding result is listed as “binds”.

The values above are taken from publication PMC2885933 (The EMBO Journal, 2010).
